These results are taken from the supplement of paper PMC9170038.

For this data set, the system named is MS2 coat protein. Description: apparent KD of MS2 coat protein; designed switch direction (-1 OFF switch, 1 ON switch): -1; higher = weaker reporter binding. In short, it runs like this: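 An oligonucleotide input, 200 uM small-molecule ligand, or no input was present during titration of SNAP-549-labelled MS2 coat protein, which was doubled from 0.7 or 1.5 nM to 3 µM. Designed RNA switches had been transcribed on Illumina chips by stalled E. coli RNA polymerase. Apparent KD per design is the median over clusters of curves fitted to normalised cluster fluorescence.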

Where [1] appears, read: Eterna round: R95, input ligand: FMN 200 uM.
The mark [2] stands for this setting: Eterna round: R95, input ligand: microRNA oligo, concentration not stated.
Setting [3] is: Eterna round: R95, input ligand: none.
Setting [4] is: input ligand: microRNA oligo, concentration not stated.

For “CAGAAACAUGAGGAUCACCCAUGUGAGGAUAUGAAAAAGAAAAGAAAAGAAAGAAGAAUCAGAAGGCACAAAGA [salish99-ex1_r3_085] (puzzle: Exclusion 1)”, the “apparent KD of MS2 coat protein” value by setting is: under setting [1], 0.0313 µM; under setting [2], 0.0239 µM; under setting [3], 0.0318 µM. With “GUAUAUAGUGUGAGGAUAUGCUGGUCCUUGGAUCAGCAGAAGGCACAUGAGGAUCACCCAUGUAGUUAAAUAUA [Mat - Exclusion 4 - JL Mod - D20] (puzzle: Brourd's mod of Exclusion 4)”, the “apparent KD of MS2 coat protein” value under setting [2] was determined as 0.0301 µM. For “UUAUAUAGUGUGAGGAUAUGCUGGUCCUUGGAUCAGCAGAAGGCACAUGAGGAUCACCCAUGUAGUUAAUAAUA [Mat - Exclusion 4 - JL Mod - D16] (puzzle: Brourd's mod of Exclusion 4)”, the “apparent KD of MS2 coat protein” value is 0.131 µM under setting [1], 0.03 µM under setting [2] and 0.0428 µM under setting [3]. As to “GCAGGUUAAGUCAGGAUAUACCUAUGGAUACAUAGGUAGAAGGGACAUGAGGAUCACCCAUGUGUCUCGCCUGC [Fiskers BMX 4 - 70] (puzzle: Brourd's mod of Exclusion 4)”, the “apparent KD of MS2 coat protein” value under setting [2] came to 0.0627 µM. Take “AAGACCAGAGGAUAUCAGACGCGGCACAUGAGGAUCACCCAUGUAUUCCCGUCUGCCGACUGAGAAGGUUGGAAAG [Xeusbi] (puzzle: Exclusion 5)”: the “apparent KD of MS2 coat protein” value under setting [2] came to 0.00941 µM. For the sequence “CUUUUUUUUGUGAGGAUAUACUGUUAUUAAAGUUAGUAGAAGGUACAUGAGGAUCACCCAUGUUAAUUACUUUA [JR_BME4_Sub050] (puzzle: Brourd's mod of Exclusion 4)”, the “apparent KD of MS2 coat protein” value under setting [2] is 0.0129 µM. As for “GGCCGUUUUCGGCCCGGGCGGGCCACAUGAGGAUCACCCAUGUAGGAUAUCGCCGGGUUUCCCGGCGAGAAGGGCAGGGCCCGC [first try] (Eterna round: R96, puzzle: Exclusion NG 3)”, the “apparent KD of MS2 coat protein” value reads like this: (input ligand: FMN 200 uM) 0.0134 µM; under setting [4], 0.0137 µM; (input ligand: none) 0.0175 µM.

For “CGUGCGUAUGUGAGGAUAUGCUGGUCCUUGGCUCGGCAGAAGGCACAUGAGGAUCACCCAUGUGGUGUCGUACG [salish99_Bmod_ex4_062] (puzzle: Brourd's mod of Exclusion 4)”, the “apparent KD of MS2 coat protein” value by setting is: under setting [1], 0.0534 µM; under setting [2], 0.152 µM; under setting [3], 0.171 µM. For the sequence “UUUUAGUGAGGAUAUACAUUUUUUUAAUUAUUUAUAAUAUUACAUGAGGAUCACCCAUGUAGAAGGCACAUUUU [My Design] (puzzle: Exclusion 2)”, the “apparent KD of MS2 coat protein” value under setting [2] was found to be 0.0274 µM.

Regarding “GGGUCACAUGAGGAUCACCCAUGUGAGGAUAUGAUACUAUGUACUUCGGUACAUAGUAUCAGAAGGCACAUCCC [Ex1-3: 17] (puzzle: Exclusion 1)”, under setting [2], the “apparent KD of MS2 coat protein” value came out at 0.0186 µM. As to “CAGUACUGAGGAUAUACAUGAGGAUCACCCAUGUGUCCCUGCUAGGAAACUAGCAAAAGUAGAAGGCAGUACUG [Fiskers Ex 3 828 mod 3] (puzzle: Exclusion 3)”, the “apparent KD of MS2 coat protein” value under setting [1] amounted to 0.298 µM, the “apparent KD of MS2 coat protein” value under setting [2] stood at 0.0213 µM and the “apparent KD of MS2 coat protein” value under setting [3] stood at 0.0212 µM.

As to “AAGAGGUCAGGAUAUACGGAGAGAGGGAGUUGGUUAGGGUAACAUGAGGAUCACCCAUGUAGAAGGGACUAAGA [JR_Exclu2_Sub079] (puzzle: Exclusion 2)”, the “apparent KD of MS2 coat protein” value runs as follows: under setting [1], 0.0234 µM; under setting [2], 0.0231 µM; under setting [3], 0.0251 µM.

On to “AUAUUACAUGAGGAUCACCCAUGUGAGGAUAUGGAGCGCGACCGCCCGGUCGCGUACACCAGAAGGCGCGGGCG [1st #57] (Eterna round: R97, puzzle: Exclusion 1)”, for which the “apparent KD of MS2 coat protein” value (input ligand: FMN 200 uM) was 0.0462 µM and the “apparent KD of MS2 coat protein” value (input ligand: none) came out at 0.0223 µM.

Consider “UCUCGCGUCGAGGAUAUAUCGUGUAAGUGCGCGAUAGAAGGCGACACAUGAGGAUCACCCAUGUAGGGCCGAAC [Eternabot (Original) Solution 14] (Eterna round: R97, puzzle: Exclusion 6)”, for which the “apparent KD of MS2 coat protein” value (input ligand: FMN 200 uM) worked out at 0.149 µM and the “apparent KD of MS2 coat protein” value (input ligand: none) is 0.0232 µM. On to “ACAUGUCAUCGAGGAUAUUGGACACAUGAGGAUCACCCAUGUACUCGGUUGCUCUAGCAUGAGUUCGAGAAGGCGAUGUACAUU [Ex NG2 #80] (Eterna round: R96, puzzle: Exclusion NG 2)”, for which the “apparent KD of MS2 coat protein” value runs as follows: (input ligand: FMN 200 uM) 0.159 µM; under setting [4], 0.229 µM; (input ligand: none) 0.387 µM. As to “CCAAGCUGUGUGAGGAUAUGCUGAACCUUGGUUCAGCAGAAGGCACAUGAGGAUCACCCAUGUGAAAAGCUUGG [Mat - Exclusion 4 - JL Mod - D95] (puzzle: Brourd's mod of Exclusion 4)”, under setting [2], the “apparent KD of MS2 coat protein” value was found to be 0.0153 µM. In the case of “UUAUCCGCUGAGGAUAUUAUCAGUGAGAGCUGAUGAGAAGGCGGUACAUGAGGAUCACCCAUGUCUAUGGGCAG [Ex-6 Malc#24] (puzzle: Exclusion 6)”, the “apparent KD of MS2 coat protein” value under setting [1] amounted to 0.472 µM, the “apparent KD of MS2 coat protein” value under setting [2] was 0.337 µM and the “apparent KD of MS2 coat protein” value under setting [3] is 0.435 µM. “CUCUUGUCAGGAUAUUAUGGACGAUAGCAGGGCUACGUCAGUGAGAAGGGACAUGAGGAUCACCCAUGUAAAAU [Onatbezaes] (puzzle: Exclusion 4)”: under setting [2], the “apparent KD of MS2 coat protein” value was 0.0771 µM. Turning to “GGAUCACAUGUUAGGAUAUGCUGGUCCUUGGAUCAGCAGAAGGGACAUGAGGAUCACCCAUGUCAUGAAGAUCC [Eli bmx4 4.81] (Eterna round: R97, puzzle: Brourd's mod of Exclusion 4)”, the “apparent KD of MS2 coat protein” value (input ligand: FMN 200 uM) was 0.0528 µM and the “apparent KD of MS2 coat protein” value (input ligand: none) was 0.0241 µM. Consider “CUUAGUAUCUAGGAUAUCUAGUACAUAGUAUCUAGAGAAGGAGAUACAUGAGGAUCACCCAUGUUCUGUGAUCU [Exclusion 6 - 2:d] (puzzle: Exclusion 6)”, for which, under setting [2], the “apparent KD of MS2 coat protein” value amounted to 0.217 µM. As to “GGUCGUCAAGUCAGGAUAUCGUUUGGUCGGUGUGACGAGAAGGGACAUGAGGAUCACCCAUGUCGUCUCAUCAG [Ex4 #29] (Eterna round: R97, puzzle: Brourd's mod of Exclusion 4)”, the “apparent KD of MS2 coat protein” value is, setting by setting: (input ligand: FMN 200 uM) 0.031 µM; (input ligand: none) 0.0308 µM.

For “AAUAACAAGCUGAUCCUGCACAUGAGGAUCACCCAUGUGCUCGUCUUGUAAAGUACUAUCACGAAAGUGAUAGUACA (Eterna round: R97, puzzle: Sensor, turn-off variant 1)”, the “apparent KD of MS2 coat protein” value (input ligand: FMN 200 uM) was 0.0163 µM and the “apparent KD of MS2 coat protein” value (input ligand: none) worked out at 0.0212 µM. Consider “GUCAGCUCGUGAGGAUAUACAUGAUAGAUCGAUUAAUUAAUUAAUUUAACAUGAGGAUCACCCAUGUAGAAGGCACGAGCUGAU [ENG2/1-A2] (Eterna round: R96, puzzle: Exclusion NG 2)”, for which the “apparent KD of MS2 coat protein” value under setting [4] was determined as 0.0358 µM. Consider “UUCUGGACAGGAUAUGUACUUGAGCACUUGAGGAUCACCCAAGUCCUCAAGUACUCAGGCACAGAAGGGUUAAUUU [jl-ex5.4.65 ViennaUCT mod] (Eterna round: R97, puzzle: Exclusion 5)”, for which the “apparent KD of MS2 coat protein” value runs as follows: (input ligand: FMN 200 uM) 0.11 µM; (input ligand: none) 0.0719 µM.

On to “CUAGUAUAUCAGGAUAUGAUAUUGUGUAGUAUAUCAGAAGGGAUGACAUGAGGAUCACCCAUGUUAUGGGAUGA [JR_Ex6_Sub048] (Eterna round: R97, puzzle: Exclusion 6)”, for which the “apparent KD of MS2 coat protein” value by setting is: (input ligand: FMN 200 uM) 0.273 µM; (input ligand: none) 0.121 µM. As for “UUUAAUUUUUUUUUUUUACAAGCUUUUUGCUCGUCUUAUACAUGAGGAUCACCCAUGUAGGUGAAAGGUAAAUUAUC [JMF 65] (puzzle: Sensor v3, turn-off variant 2)”, the “apparent KD of MS2 coat protein” value by setting is: under setting [1], 0.032 µM; under setting [2], 0.117 µM; under setting [3], 0.0309 µM. As for “GCACAGUGAGGAUAUACAUGAGGAUCACCCAUGUCCGCCGAUUAAGAGGUAUCAACGUGUAGAAGGUACCAGCG [Eternabot (Original) Solution 25] (Eterna round: R97, puzzle: Exclusion 3)”, the “apparent KD of MS2 coat protein” value worked out at 0.0172 µM (input ligand: FMN 200 uM) and 0.0185 µM (input ligand: none). For “UAAAAGUGAGGAUAUACAUUAAGGUAAGUCCGGAUGCGAAGACAUGAGGAUCACCCAUGUAGAAGGCACACAAA [Aredge] (puzzle: Exclusion 2)”, the “apparent KD of MS2 coat protein” value under setting [2] is 0.0321 µM. With “GAAUAGCAAGCGAGAUCCCACAUGAGGAUCACCCAUGUGCUCGUCUUAUAAAGUACUGUGACGAUAGUCACGGUACA [Mat - Sensor, turn-off var - Eli Mod - D13] (Eterna round: R97, puzzle: Sensor, turn-off variant 1)”, the “apparent KD of MS2 coat protein” value runs as follows: (input ligand: FMN 200 uM) 0.0165 µM; (input ligand: none) 0.0149 µM. Turning to “CAGUACUGAGGAUAUACAUGAGGAUCACCCAUGUGAUCUGGUGCACGCGUACGUGUACGUAGAAGGCAGUACUG [JL 3.27 m4] (Eterna round: R97, puzzle: Exclusion 3)”, the “apparent KD of MS2 coat protein” value (input ligand: FMN 200 uM) amounted to 1.28 µM and the “apparent KD of MS2 coat protein” value (input ligand: none) was determined as 0.121 µM. Taken in the same sequence, the figures for “CUAGUAUAUCAGGAUAUGAUAGUGUAUAGUAUAUCAGAAGGGAUGACAUGAGGAUCACCCAUGUUAAGGGAUGA [JR_Ex6_Sub050] (Eterna round: R97, puzzle: Exclusion 6)” were 0.0524 µM and 0.0461 µM. In the case of “GACCGGACGUGGUCAGGUAACAUGAGGAUCACCCAUGUAGGUCUAGGAACAAGCCUUUUGUAGGCUCGUCUUAUAAA [JR_SV3TOV1_Sub059] (puzzle: Sensor v3, turn-off variant 1)”, the “apparent KD of MS2 coat protein” value under setting [1] stood at 0.0475 µM, the “apparent KD of MS2 coat protein” value under setting [2] amounted to 0.0361 µM and the “apparent KD of MS2 coat protein” value under setting [3] is 0.0636 µM. For the sequence “ACUGGUCAUGAGGAUAUGCGCCAGAACGCCGGCGUAGAAGGCGUGACAUGAGGAUCACCCAUGUCAGUUCGCGA [eternacac ex6r4 sub30] (Eterna round: R97, puzzle: Exclusion 6)”, the “apparent KD of MS2 coat protein” value is, setting by setting: (input ligand: FMN 200 uM) 0.0391 µM; (input ligand: none) 0.0396 µM.
